Test results: patent publication US20140162285A1, “Methods of Modulating Vesicular Trafficking” (The General Hospital Corporation, priority 2009, published 2014)

Target: T1, ARNO CC-domain (Homo sapiens, UniProt Q99418)
T1 construct: ii) 1-60aa, coiled-coil (CC) domain; made in house; host or cells: E. coli BL21(DE3)
T1 sequence (Q99418 1-60): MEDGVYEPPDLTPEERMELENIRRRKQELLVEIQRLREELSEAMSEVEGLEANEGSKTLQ
Assay: GST pull-down of in vitro translated a2N with ARNO CC-domain
Assay type: binding
Conditions: Western blot anti-a2N
Procedure: The purified recombinant GST-ARNO(wt) and GST-tagged ARNO domain constructs ([…]) were incubated with 10 μl of in vitro translated 6His-a2N recombinant protein at 4° C. for 2 hours in 500 μl of binding buffer (10 mM HEPES, 1 mM EDTA, 1 mM DTT, 100 mM NaCl, 10% glycerol, 0.1% NP-40) with gentle rotation. Then the interacting recombinant proteins were immobilized on glutathione beads by incubation with 50 μl of 50% glutathione Sepharose 4B slurry for 2 hours at 4° C. The beads were collected by centrifugation and washed 5 times with 500 μl ice-cold binding buffer. Interacting proteins were eluted by boiling in SDS-PAGE sample buffer for 10 min at 95° C., resolved by SDS-PAGE and analyzed by Western blotting using polyclonal anti-a2N antibodies. […]
To examine the ability of these well-defined and functionally distinct domains of ARNO to interact with a2N1-402, full-length ARNO(wt) and its four domains were cloned separately for bacterial expression of recombinant proteins (FIG. 3). […] Interacting proteins were detected by western blot analysis with a2-specific antibodies as described above.

B1: a2N: recombinant N-terminal cytosolic tail, amino acid residues 1-402 of mouse V-ATPase a2-subunit (protein)
chain: MGSLFRSESMCLAQLFLQSGTAYECLSALGEKGLVQFRDLNQNVSSFQRKFVGEVKRCEELERILVYLVQEITRADIPLPEGEASPPAPPLKHVLEMQEQLQKLEVELREVTKNKEKLRKNLLELVEYTHMLRVTKTFLKRNVEFEPTYEEFPALENDSLLDYSCMQRLGAKLGFVSGLIQQGRVEAFERMLWRACKGYTIVTYAELDECLEDPETGEVIKWYVFLISFWGEQIGHKVKKICDCYHCHIYPYPNTAEERREIQEGLNTRIQDLYTVLHKTEDYLRQVLCKAAESVCSRVVQVRKMKAIYHMLNMCSFDVTNKCLIAEVWCPEVDLPGLRRALEEGSRESGATIPSFMNTIPTKETPPTLIRTNKFTEGFQNIVDAYGVGSYREVNPALFTII
modifications: left off: small tags and cut ends
notes: recombinant N-terminal cytosolic tail, amino acid residues 1-402 of mouse V-ATPase a2-subunit
interaction of a2N with ARNO CC-domain: no interaction
